The values below come from patent US20210206825A1 (published 2021).

The target in one test is human c-Met on cells (human, UniProt P08581 25-1390). Nature of the test: cell-based or functional assay.
Test [1] addresses T1, human EGFR on cells (human, UniProt P00533 25-1210). Put plainly: cell-based or functional assay.
For test [2], the target named is T1, human EGFR on cells. Put plainly: cell-based or functional assay. This is another data set of the same source.
The target of test [3] is T2, recombinant human c-Met Fc chimera (human, UniProt P08581 16-932).
T2 construct: also called c-Met-Fc fusion protein; c-Met extracellular domain; not shown: Fc
Put plainly: SPR. An excerpt:
Serine was chosen to decrease the hydrophobicity of the resulting mutants. […] Fold change indicates fold change of the KD value of a variant when compared to the parent P114AR7P95-A3.
For orientation: SPR reads the build-up and loss of mass on a sensor chip optically.

Residue numbers refer to the chain shown, from its start.

B1: P114AR5P74-A5 (designed binder, not shown: small tags and cut ends)
chain: LPAPKNLVVSRVTEDSARLSWTAPDAAFDSFWIRYDEVVVGGEAIVLTVPGSERSYDLTGLKPGTEYYVNILGVKGGSISVPLSAIFTT
Turning to B1, the “inhibition of c-Met phosphorylation in NCI-H292 cells (IC50)” value with human c-Met on cells was 610 nM.

B2: ECB95 (designed binder, not shown: small tags and cut ends)
chain: MLPAPKNLVVSEVTEDSARLSWDDPWAFYESFLIQYQESEKVGEAIVLTVPGSERSYDLTGLKPGTEYTVSIYGVHNVYKDTNIRGLPLSAIFTTAPAPAPAPAPLPAPKNLVVSRVTEDSARLSWTAPDAAFDSFWIRYFEFVGSGEAIVLTVPGSERSYDLTGLKPGTEYVVNILGVKGGSISPPLSAIFTT
On to B2, for which the “pEGFR inhibition in H292 cells (IC50)” value with human EGFR on cells [1] amounted to 13.6 nM.

B3: ECB94 (designed binder, not shown: small tags and cut ends)
chain: B2 chain with V144L, S183K
Consider B3, for which the “pEGFR inhibition in H292 cells (IC50)” value with human EGFR on cells [1] came to 5.1 nM.

B4: ECB108 (designed binder, not shown: small tags and cut ends)
chain: B2 chain with W26H, G145S, S146K, E148D
With B4, the “pEGFR inhibition in H292 cells (IC50)” value with human EGFR on cells [1] stood at 814 nM.

B5: ECB97 (designed binder, not shown: small tags and cut ends)
chain: B2 chain with V144L, G178S
B5: in the test with human EGFR on cells [1], the “pEGFR inhibition in H292 cells (IC50)” value stood at 16.6 nM.

B6: ECB15 (designed binder, not shown: small tags and cut ends)
chain: B2 chain with I84M, V144L, L177M, S183K
In the case of B6, the “pEGFR inhibition in H292 cells (IC50)” value with human EGFR on cells [1] turned out to be 4.2 nM.

B7: ECB96 (designed binder, not shown: small tags and cut ends)
chain: B2 chain with G145S, S146K, E148D
With B7, the “pEGFR inhibition in H292 cells (IC50)” value with human EGFR on cells [1] turned out to be 24.7 nM.

B8: ECB109 (designed binder, not shown: small tags and cut ends)
chain: B2 chain with W26H, V144L, G178S
For B8, the “pEGFR inhibition in H292 cells (IC50)” value with human EGFR on cells [1] was 432 nM.

B9: ECB107 (designed binder, not shown: small tags and cut ends)
chain: B2 chain with W26H
Take B9: in the test with human EGFR on cells [1], the “pEGFR inhibition in H292 cells (IC50)” value was found to be 812 nM.

B10: ECB106 (designed binder, not shown: small tags and cut ends)
chain: B2 chain with W26H, V144L, S183K
Consider B10, for which the “pEGFR inhibition in H292 cells (IC50)” value with human EGFR on cells [1] came to 367 nM.

B11: P53A1R5-17 (designed binder, not shown: small tags and cut ends)
chain: LPAPKNLVVSEVTEDSLRLSWADPHGFYDSFLIQYQESEKVGEAINLTVPGSERSYDLTGLKPGTEYTVSIYGVHNVYKDTNMRGLPLSAEFTT
For B11, the “Phospho-EGFR IC50 (A431 cells, Tyr1173)” value with human EGFR on cells [2] was more than 2500 nM.

B12: P54AR4-17 (designed binder, not shown: small tags and cut ends)
chain: B11 chain with A22T, D23Y, P24D, H25R, G26D, F27G
As to B12, the “Phospho-EGFR IC50 (A431 cells, Tyr1173)” value with human EGFR on cells [2] was determined as 184 nM.

B13: P54AR4-48 (designed binder, not shown: small tags and cut ends)
chain: B11 chain with A22D, H25R, D29E
With B13, the “Phospho-EGFR IC50 (A431 cells, Tyr1173)” value with human EGFR on cells [2] came out at 170 nM.

B14: P54AR4-73 (designed binder, not shown: small tags and cut ends)
chain: B11 chain with A22T, D23W, H25Y, G26A, F27D, Y28L
With B14, the “Phospho-EGFR IC50 (A431 cells, Tyr1173)” value in the test with human EGFR on cells [2] amounted to 141 nM.

B15: P54AR4-83 (designed binder, not shown: small tags and cut ends)
chain: B11 chain with A22D, H25W, G26A, D29E
Regarding B15, the “Phospho-EGFR IC50 (A431 cells, Tyr1173)” value in the test with human EGFR on cells [2] came to 18 nM.

B16: ECB15 (SEQ ID NO: 145) (designed binder)
chain: LPAPKNLVVSEVTEDSARLSWDDPWAFYESFLIQYQESEKVGEAIVLTVPGSERSYDLTGLKPGTEYTVSIYGVHNVYKDTNMRGLPLSAIFTTAPAPAPAPAPLPAPKNLVVSRVTEDSARLSWTAPDAAFDSFWIRYFEFLGSGEAIVLTVPGSERSYDLTGLKPGTEYVVNIMGVKGGKISPPLSAIFTT
notes: kept as two constructs; also called ECB15 without Met; not shown: C-terminal poly-histidine tag
In general, Kd refers to the equilibrium constant for the complex coming apart. For B16, the Kd in test [3] worked out at 0.4 nM.

B17: A3 N70S (designed binder)
chain: B16 chain with N174S
notes: In the context of ECB15; built as m66; not shown: C-terminal poly-histidine tag
As a reminder, the koff is a measure of how fast the partners let go of each other. Usually kon stands for the rate constant with which the complex forms. On to B17, for which, in test [3], the “Fold Change of KD vs parent” value was 14.8 fold, the Kd came out at 5.9 nM, the koff amounted to 0.00249 s⁻¹ and the kon worked out at 425000 M⁻¹ s⁻¹.

B18: A3 P81S (designed binder)
chain: B16 chain with P185S
notes: as for B17
Take B18: in test [3], the “Fold Change of KD vs parent” value was 4.25 fold, the Kd came out at 1.7 nM, the koff came to 0.000536 s⁻¹ and the kon was 321000 M⁻¹ s⁻¹.

B19: A3 F36S (designed binder)
chain: B16 chain with F140S
notes: as for B17
Regarding B19, in test [3], the “Fold Change of KD vs parent” value is 68 fold, the Kd worked out at 27.2 nM, the koff is 0.00512 s⁻¹ and the on-rate (kon) worked out at 188000 M⁻¹ s⁻¹.

B20: A3 K78S (designed binder)
chain: B16 chain with K182S
notes: Tested in the context of bispecific ECB15; not shown: C-terminal poly-histidine tag
On to B20, for which, in test [3], the “Fold Change of KD vs parent” value turned out to be 0.75 fold, the dissociation constant Kd is 0.3 nM, the off-rate (koff) stood at 0.00015 s⁻¹ and the kon is 440000 M⁻¹ s⁻¹.

B21: A3 I79S (designed binder)
chain: B16 chain with I183S
notes: as for B17
As for B21, the binding result in test [3] is reported as “no binding”.

B22: A3 R34S (designed binder)
chain: B16 chain with R138S
notes: as for B17
Turning to B22, in test [3], the binding result is “no binding”.

B23: A3 L39S (designed binder)
chain: B16 chain with L143S
notes: as for B17
B23: in test [3], the “Fold Change of KD vs parent” value was found to be 6.75 fold, the Kd came out at 2.7 nM, the koff stood at 0.00127 s⁻¹ and the kon came to 475000 M⁻¹ s⁻¹.

B24: A3 W32S (designed binder)
chain: B16 chain with W136S
notes: as for B17
On to B24, for which, in test [3], the “Fold Change of KD vs parent” value is 74.5 fold, the Kd was determined as 29.8 nM, the koff turned out to be 0.0086 s⁻¹ and the kon is 289000 M⁻¹ s⁻¹.

B25: A3 G40S (designed binder)
chain: B16 chain with G144S
notes: as for B17
As to B25, in test [3], the “Fold Change of KD vs parent” value worked out at 4.25 fold, the Kd stood at 1.7 nM, the koff was determined as 0.00032 s⁻¹ and the on-rate (kon) amounted to 185000 M⁻¹ s⁻¹.

B26: A3 F38S (designed binder)
chain: B16 chain with F142S
notes: as for B17
Consider B26, for which, in test [3], the “Fold Change of KD vs parent” value came to 1790 fold, the Kd is 717 nM, the koff came to 0.0323 s⁻¹ and the kon stood at 45100 M⁻¹ s⁻¹.

B27: A3 V68S (designed binder)
chain: B16 chain with V172S
notes: as for B17
In the case of B27, in test [3], the “Fold Change of KD vs parent” value was 9 fold, the Kd is 3.6 nM, the koff is 0.0012 s⁻¹ and the association rate constant (kon) turned out to be 329000 M⁻¹ s⁻¹.

B28: A3 M72S (designed binder)
chain: B16 chain with M176S
notes: as for B17
As for B28, in test [3], the binding result is listed as “no binding”.

B29: P54CR4-31 (designed binder, not shown: small tags and cut ends)
chain: LPAPKNLVVSEVTEDSLRLSWTAPDAAFDSFLIQYQESEKVGEAINLTVPGSERSYDLTGLKPGTEYTVSIYGVLGSYVFEHDVMLPLSAEFTT
As to B29, the “Phospho-EGFR IC50 (A431 cells, Tyr1173)” value in the test with human EGFR on cells [2] is 179 nM.
